From patent US20170369576A1

Legend:
[1] = molecular target: HIV-1 envelope glycoprotein of isolate 92TH594 (R5/X4), on pseudotype virus (HIV-1 (92TH594)); assay: cell-based or functional assay
[2] = molecular target: HIV-1 envelope glycoprotein of isolate HXB2 (X4), on pseudotype virus (HIV-1 (HXB2)) (UniProt P04578); assay: cell-based or functional assay
[3] = molecular target: HIV-1 envelope glycoprotein of isolate JRCSF (R5), on pseudotype virus (HIV-1 (JRCSF)); assay: cell-based or functional assay
[4] = molecular target: chimpanzee CD4 on PBMC (chimpanzee) (UniProt P16004); assay: FACS of chimp X282 PBMC stained with Leu3a-PE only
Chain of chimpanzee CD4 on PBMC (chimpanzee) (P16004 26-458): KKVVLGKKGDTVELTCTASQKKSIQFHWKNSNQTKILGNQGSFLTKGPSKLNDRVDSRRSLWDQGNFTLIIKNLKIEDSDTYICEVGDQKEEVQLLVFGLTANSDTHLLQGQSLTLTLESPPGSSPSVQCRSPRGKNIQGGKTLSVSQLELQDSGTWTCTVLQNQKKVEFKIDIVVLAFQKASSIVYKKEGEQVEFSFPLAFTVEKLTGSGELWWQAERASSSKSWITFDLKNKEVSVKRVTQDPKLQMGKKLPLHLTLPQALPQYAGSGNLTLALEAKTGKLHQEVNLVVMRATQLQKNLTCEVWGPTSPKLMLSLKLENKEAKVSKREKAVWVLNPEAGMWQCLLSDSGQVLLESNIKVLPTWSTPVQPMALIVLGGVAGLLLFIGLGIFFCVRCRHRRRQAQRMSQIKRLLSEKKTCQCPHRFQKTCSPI

[5] = molecular target: chimpanzee CD4 on PBMC (chimpanzee) (UniProt P16004); assay: FACS of chimp X301 PBMC stained with Leu3a-PE only
[6] = molecular target: chimpanzee CD4 on PBMC (chimpanzee) (UniProt P16004); assay: FACS of chimp X282 PBMC, sequential staining: 1st Leu3a binding, 2nd B4 exposure
[7] = molecular target: chimpanzee CD4 on PBMC (chimpanzee) (UniProt P16004); assay: FACS of chimp X301 PBMC, sequential staining: 1st Leu3a binding, 2nd B4 exposure
[8] = molecular target: chimpanzee CD4 on PBMC (chimpanzee) (UniProt P16004); assay: FACS of chimp X282 PBMC, sequential staining: 1st B4 binding, 2nd Leu3a exposure; competitor B4 prebound
[9] = molecular target: chimpanzee CD4 on PBMC (chimpanzee) (UniProt P16004); assay: FACS of chimp X301 PBMC, sequential staining: 1st B4 binding, 2nd Leu3a exposure; competitor B4 prebound

Row | Substance | IC50 of HIV entry inhibition, pseudotype virus 92TH594 (R5/X4), U87-CD4+/CCR5+/CXCR4+ cells [1] | IC50 of HIV entry inhibition, pseudotype virus HXB2 (X4), U87-CD4+/CCR5+/CXCR4+ cells [2] | IC50 of HIV entry inhibition, pseudotype virus JRCSF (R5), U87-CD4+/CCR5+/CXCR4+ cells [3] | percent positive PBMC (single label control, Leu3a+) [4] | percent positive PBMC (single label control, Leu3a+) [5] | percent positive PBMC (Leu3a+ B4-) [6] | percent positive PBMC (Leu3a+ B4-) [7] | percent positive PBMC (Leu3a+ B4+) [8] | percent positive PBMC (Leu3a+ B4-) [8] | percent positive PBMC (Leu3a+ B4+) [9] | percent positive PBMC (Leu3a+ B4-) [9]
1 | monoclonal neutralizing antibody 2F5 | 3 µg/mL | 0.07 µg/mL | 4 µg/mL |  |  |  |  |  |  |  | 
2 | monoclonal neutralizing antibody 2G12 | 1.3 µg/mL | 0.5 µg/mL | 0.8 µg/mL |  |  |  |  |  |  |  | 
3 | anti-CD4 monoclonal antibody Leu3a |  |  |  | 25.5% | 44% | 0.1% | 0.3% | 1.2% | 0% | 3% | 0%
